The numbers were not newly measured in PMC10215522, which cites them from elsewhere.

This data set addresses TFPI2 (Homo sapiens) (UniProt P48307).
UniProt P48307, sequence (P48307 23-235): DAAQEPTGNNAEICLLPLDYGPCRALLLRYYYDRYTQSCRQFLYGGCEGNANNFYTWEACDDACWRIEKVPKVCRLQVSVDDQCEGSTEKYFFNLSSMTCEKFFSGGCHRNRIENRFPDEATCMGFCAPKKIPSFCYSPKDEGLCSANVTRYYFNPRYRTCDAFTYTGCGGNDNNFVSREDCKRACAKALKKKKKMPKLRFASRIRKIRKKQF

One may read the Kd as the constant that tells how readily two partners part at equilibrium. On to gC1qR (from UniProt Q07021), for which the Kd was 70 nM.
